Consider one molecule from article PMC5771957.

The target in the assay is T1, CCDC103 (wildtype), N-terminal His10 tagged (H. sapiens), Q8IW40.
T1 chain: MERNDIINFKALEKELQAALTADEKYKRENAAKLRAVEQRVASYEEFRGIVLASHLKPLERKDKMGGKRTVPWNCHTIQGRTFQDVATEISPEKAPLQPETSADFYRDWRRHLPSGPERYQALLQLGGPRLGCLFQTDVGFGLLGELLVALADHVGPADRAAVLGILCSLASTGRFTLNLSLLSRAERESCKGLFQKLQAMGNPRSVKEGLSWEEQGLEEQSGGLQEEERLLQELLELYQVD
The assay can be described thus: SEC. The conditions noted are these: remark: other sources report otherwise.

B1: CCDC103 (wildtype), N-terminal His10 tagged, Q8IW40 1-242 (natural protein)
chain: MERNDIINFKALEKELQAALTADEKYKRENAAKLRAVEQRVASYEEFRGIVLASHLKPLERKDKMGGKRTVPWNCHTIQGRTFQDVATEISPEKAPLQPETSADFYRDWRRHLPSGPERYQALLQLGGPRLGCLFQTDVGFGLLGELLVALADHVGPADRAAVLGILCSLASTGRFTLNLSLLSRAERESCKGLFQKLQAMGNPRSVKEGLSWEEQGLEEQSGGLQEEERLLQELLELYQVD
Turning to B1, the stoichiometry N amounted to 2.
